Measured values as given in patent publication US20180326085A1.

Biological target: biotinylated recombinant human c-MET ECD (HGFR extracellular domain) (human) (UniProt P08581)
Test: HGF competition ELISA: HGF on the plate, biotinylated c-MET ECD pre-incubated with the antibody; blocked ligand HGF

For 224G11 (antibody), the IC50 (read off the curve) was 3 nM.
